{
  "source": "patent US20040253646A1",
  "about": "“Pre-mrna splicing screening assay” (priority 2001, published 2004)",
  "molecules": {"B1": {"name": "ΔCDC5Lh: CDC5L carboxyl terminal mutant protein from region h, amino acids 602-800, expressed in E. coli (protein, UniProt Q99459 602-800, looked up, fragment)", "chain": "TVGFGTNNSEHITYLEHNPYEKFSKEELKKAQDVLVQEMEVVKQGMSHGELSSEAYNQVWEECYSQVLYLPGQSRYTRANLASKKDRIESLEKRLEINRGHMTTEAKRAAKMEKKMKILLGGYQSRAMGLMKQLNDLWDQIEQAHLELRTFEELKKHEDSAIPRRLECLKEDVQRQQEREKELQHRYADLLLEKETLKS"}},
  "molecular_target": "T1, CDC5L/PLRG1 interaction in HeLa nuclear extract (Homo sapiens, UniProt O43660+Q99459)",
  "T1 construct": "wild type CDC5L immunoprecipitated from the extract using a peptide anti-CDC5L antibody; endogenous in cells; host or cells: HeLa nuclear extract",
  "T1 sequence (Q99459 whole entry)": "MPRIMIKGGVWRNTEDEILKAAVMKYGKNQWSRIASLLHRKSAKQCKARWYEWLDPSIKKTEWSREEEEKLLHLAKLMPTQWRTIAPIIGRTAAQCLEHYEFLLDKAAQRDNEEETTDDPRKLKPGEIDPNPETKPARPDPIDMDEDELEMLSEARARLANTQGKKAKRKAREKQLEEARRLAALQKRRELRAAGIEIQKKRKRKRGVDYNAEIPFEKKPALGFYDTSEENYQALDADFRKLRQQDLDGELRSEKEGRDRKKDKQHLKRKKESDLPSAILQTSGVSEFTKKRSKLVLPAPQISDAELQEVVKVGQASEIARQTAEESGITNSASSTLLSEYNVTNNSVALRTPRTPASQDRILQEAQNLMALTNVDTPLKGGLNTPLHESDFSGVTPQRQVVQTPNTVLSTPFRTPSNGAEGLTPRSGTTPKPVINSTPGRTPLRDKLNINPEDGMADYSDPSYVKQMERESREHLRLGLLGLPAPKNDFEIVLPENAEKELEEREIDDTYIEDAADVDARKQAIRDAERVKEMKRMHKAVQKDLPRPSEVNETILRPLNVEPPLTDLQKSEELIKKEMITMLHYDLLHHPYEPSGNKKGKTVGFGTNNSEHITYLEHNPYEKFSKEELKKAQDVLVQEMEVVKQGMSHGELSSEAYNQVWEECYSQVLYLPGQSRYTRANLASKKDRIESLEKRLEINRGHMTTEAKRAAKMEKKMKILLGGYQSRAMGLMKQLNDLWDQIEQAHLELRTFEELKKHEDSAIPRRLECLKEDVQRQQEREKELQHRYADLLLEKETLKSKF",
  "T1 sequence (O43660 whole entry)": "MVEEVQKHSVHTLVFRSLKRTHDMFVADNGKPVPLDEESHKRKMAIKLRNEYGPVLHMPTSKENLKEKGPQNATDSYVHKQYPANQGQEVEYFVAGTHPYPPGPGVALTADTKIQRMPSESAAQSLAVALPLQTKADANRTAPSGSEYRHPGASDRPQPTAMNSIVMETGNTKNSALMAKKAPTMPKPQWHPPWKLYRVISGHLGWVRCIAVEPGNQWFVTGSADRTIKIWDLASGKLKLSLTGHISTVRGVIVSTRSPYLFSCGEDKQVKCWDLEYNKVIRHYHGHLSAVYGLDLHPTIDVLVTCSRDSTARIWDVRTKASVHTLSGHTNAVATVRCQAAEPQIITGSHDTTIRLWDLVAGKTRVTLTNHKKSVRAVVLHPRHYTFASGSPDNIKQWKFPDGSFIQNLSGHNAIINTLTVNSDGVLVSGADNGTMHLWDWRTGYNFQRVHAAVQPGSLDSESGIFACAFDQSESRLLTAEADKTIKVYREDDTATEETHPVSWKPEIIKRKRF",
  "test": "disruption of CDC5L/PLRG1 interaction in HeLa nuclear extract (co-immunoprecipitation with anti-CDC5L)",
  "assay_type": "binding",
  "protocol": "(A) ΔCDC5Lh or ΔPLRG1f (approximately 1 nmole) was added to approximately 100 μg of HeLa nuclear extract followed by immunoprecipitation using about 15-20 μg rabbit anti-CDC5L antibodies. The immunoprecipitates were subsequently probed with sheep polyclonal anti-CDC5L and anti-PLRG1 antibodies. Lane 1 contained nuclear extract alone. […] Lanes 4 and 5 contained negative control immunoprecipitation reactions using antibodies to HCF (a nuclear protein) and rabbit pre-immune IgG. The panels labelled i and ii were probed with anti-CDC5L and anti-PLRG1 antibodies respectively. The arrows on the right of the figure indicate the protein bands.\nImmunoprecipitations of the spliceosomal proteins from nuclear extract were done using affinity purified peptide antibodies. 50 μl of nuclear extract (4-5 mg/ml) were pre-cleared for 1 hr at 4° C. on 25 μl of settled protein G or A sepharose (Pharmacia) or protein G/A agarose beads (Boehringer) that had been pre-incubated with 10 μg of sheep pre-immune IgG. The pre-cleared nuclear extract was diluted 10 times (except in immunodepletion experiments) with PBS buffer containing 0.5% Triton X-100 before adding to protein-G sepharose or agarose beads (25 μl) that had been pre-incubated with 30 pmoles of antibody for 1 hr at 4° C. Immunoprecipitations were carried out at 4° C. for 2-16 hrs. The immunoprecipitates were washed three times at 4° C. with 1 ml PBS containing 0.5% Triton X-100. Protein-G beads carrying the immune complexes were collected after each wash by centrifugation at 1500 g for 1 min. For immunodepletion experiments a higher amount of antibody (0.33 nmole/250 μg) of HeLa nuclear extract were used during the immunoprecipitation step.\nSDS PAGE gel analysis was done as described previously (Laemmli, 1970). […] Protein bands were detected by developing blots with the ECL kit (Amersham) according to the manufacturer's instructions or using NBT (60 μl of a 30 mg/ml solution)/BCIP (60 μl of a 25 mg/ml solution) in 10 ml of alkaline phosphatase buffer (0.1M NaHCO3, 1 mM MgCl2, pH 9.8) for colorimetric detection on the membrane. […]",
  "data": [
    {"molecule": "B1", "values": [
      {"measurement": "disruption of CDC5L/PLRG1 interaction (co-immunoprecipitation of PLRG1 by anti-CDC5L antibodies)", "setting": "approximately 1 nmole added to approximately 100 μg HeLa nuclear extract, FIG. 7A", "value": "will disrupt the CDC5L/PLRG1 interaction"},
      {"measurement": "disruption of CDC5L/PLRG1 complex when pre-incubated with ΔPLRG1f", "setting": "ΔCDC5Lh pre-incubated with ΔPLRG1f, FIG. 7Aii lane 7", "value": "is blocked"}
    ]}
  ]
}
